Measured values taken from US20200132689A1 (ARIZONA BOARD OF REGENTS ON BEHALF OF THE UNIVERSITY OF …, published 2020).
Changes are numbered by the printed parent chain.

B1: murine anti-NAMPT mAb AL303 (antibody, V domains shown)
VH: QVQLQQPGADLVKPGASVKLSCKASGYTFTSYWMQWVKQRPGQGLEWIGEIDPSNSYTNYNQKFRGKATLTVDPSSSTAYMQLSSLTSEDSAVYYCARGGYWGQGTTLTVSS
VL: DIVMTQAAFSNPVTLGTSASISCRSSKSLLHSNGITYLYWYLQKPGQSPQLLIYQMSNLASGVPDRFSSSGSGTDFTLRISRVEAEDVGVYYCVQNLELPYTFGGGTKLEIK
B2: murine anti-NAMPT mAb AL310 (antibody, V domains shown)
VH: QVQLQQSGAESVMPGASVKLSCKASGYTFTSYWMHWVKQRPGQGLEWIGEIDPSDSYTNYNQKFKGKSTLTVDKSSSTAYMQLSSLTSEDSAVYYCAKSNYVVPWYFDVWGTGTTVTVSS
VL: B1 VL with V94A, Y101W

Target: T1, nicotinamide phosphoribosyltransferase (NAMPT) (Homo sapiens (Human), UniProt P43490 1-491)
T1 construct: also called PBEF; visfatin
T1 sequence (P43490 whole entry): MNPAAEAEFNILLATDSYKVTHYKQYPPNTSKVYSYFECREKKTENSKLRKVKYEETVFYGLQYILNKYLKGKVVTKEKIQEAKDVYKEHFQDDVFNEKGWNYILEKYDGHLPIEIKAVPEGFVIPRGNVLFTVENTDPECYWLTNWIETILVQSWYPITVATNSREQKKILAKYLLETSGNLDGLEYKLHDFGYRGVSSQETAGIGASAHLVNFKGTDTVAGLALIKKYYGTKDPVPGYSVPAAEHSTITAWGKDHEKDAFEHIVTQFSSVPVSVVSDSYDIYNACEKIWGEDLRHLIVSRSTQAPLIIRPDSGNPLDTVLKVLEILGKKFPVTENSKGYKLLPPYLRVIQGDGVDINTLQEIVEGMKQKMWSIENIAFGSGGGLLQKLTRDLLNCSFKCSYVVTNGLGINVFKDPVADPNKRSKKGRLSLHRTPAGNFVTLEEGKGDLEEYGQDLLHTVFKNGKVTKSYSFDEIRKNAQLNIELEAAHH
Assay: method not stated

Binder	Kd [nM]
B1	6
B2	9
